Source: article PMC4219717
Blank lines part the entries; values can stand above or below the substance they belong to.

Columns and labels:
[1] = target: GST-AHSP^WT (human) (UniProt Q9NZD4)
[2] = target: GST-α-Hb1-134 (human)
[3] = target: GST-α-Hb1-126 (human)
[4] = target: GST-α-Hb1-117 (human)
[5] = target: GST-α-Hb1-138 (human)
[6] = target: GST-α-Hb^WT (human)

UniProt Q9NZD4, sequence (Q9NZD4 whole entry): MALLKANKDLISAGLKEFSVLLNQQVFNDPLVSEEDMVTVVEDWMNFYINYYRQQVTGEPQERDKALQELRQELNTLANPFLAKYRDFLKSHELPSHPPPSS

Substance: GST-α-Hb1-134 (domain or fragment)
CO recombination kinetics after flash photolysis of the GST-AHSP^WT/GST-α-Hb complex: fraction of the intermediate (I) phase [1]: 10 % I phase

Substance: GST-α-Hb1-138 (domain or fragment)
CO recombination kinetics after flash photolysis of the GST-AHSP^WT/GST-α-Hb complex: fraction of the rapid (R) phase [1]: 97 % R phase

Substance: native α-Hb (natural protein)
CO recombination kinetics after flash photolysis of the complex: fraction of the intermediate (I) phase [1]: 100 % I phase

More lines, now with the values ahead:

CO recombination kinetics after flash photolysis of the GST-AHSP^WT/GST-α-Hb complex: fraction of the intermediate (I) phase [1]: 20 % I phase
Substance: GST-α-Hb1-117 (domain or fragment)

CO recombination kinetics after flash photolysis of the GST-AHSP^WT/GST-α-Hb complex: fraction of the intermediate (I) phase [1]: 19 % I phase
Substance: GST-α-Hb1-126 (domain or fragment)

CO recombination kinetics after flash photolysis of the GST-AHSP^WT/GST-α-Hb complex: fraction of the intermediate (I) phase [1]: 100 % I phase
Substance: GST-α-Hb^WT (natural protein)

CO recombination kinetics after addition of β-Hb and 1 mM IHP to the GST-AHSP^WT/GST-α-Hb complex: fraction of the rapid (R) phase [2]: 84 % R phase | CO recombination kinetics after addition of β-Hb and 1 mM IHP to the GST-AHSP^WT/GST-α-Hb complex: fraction of the rapid (R) phase [3]: 80 % R phase | CO recombination kinetics after addition of β-Hb and 1 mM IHP to the GST-AHSP^WT/GST-α-Hb complex: fraction of the rapid (R) phase [4]: 88 % R phase | CO recombination kinetics after addition of β-Hb and 1 mM IHP to the GST-AHSP^WT/GST-α-Hb complex: fraction of the rapid (R) phase [5]: 95 % R phase | CO recombination kinetics after addition of β-Hb and 1 mM IHP to the GST-AHSP^WT/GST-α-Hb^WT complex: fraction of the slow (T) phase [6]: 32 % T phase
Substance: native β-Hb (natural protein)
